This note sets out measurements from article PMC6138625.

Holding throughout (assay): magnetic tweezers SMBA
The subject of data set [1] is IGHMBP2/BC (Homo sapiens / Saccharomyces cerevisiae chimera). The settings on record: no ATP; SMBA in helicase buffer without ATP (composition not in the material), 1-20 nM helicase, force cycles >15 pN / 7 pN / <3 pN.
In data set [2] the test system is yUPF1 helicase domain (Saccharomyces cerevisiae). The following applies: no ATP; 7 pN; n=11; SMBA in helicase buffer without ATP (composition not in the material), 1-20 nM helicase, force cycles >15 pN / 7 pN / <3 pN.
The subject of data set [3] is IGHMBP2-FL (Homo sapiens). The settings on record: no ATP; 7 pN; n=27; SMBA in helicase buffer without ATP (composition not in the material), 1-20 nM helicase, force cycles >15 pN / 7 pN / <3 pN.
Data set [4] has as its system UPF1 R487S (R-S) (Saccharomyces cerevisiae). The settings on record: SMBA in helicase buffer without ATP (composition not in the material), 1-20 nM helicase, force cycles >15 pN / 7 pN / <3 pN.
In data set [5] the test system is IGHMBP2 helicase core (Homo sapiens). The settings on record: no ATP; 7 pN; n=48; SMBA in helicase buffer without ATP (composition not in the material), 1-20 nM helicase, force cycles >15 pN / 7 pN / <3 pN.
The test system of data set [6] is UPF1/BC (Saccharomyces cerevisiae / Homo sapiens chimera). The following applies: no ATP; slides; SMBA in helicase buffer without ATP (composition not in the material), 1-20 nM helicase, force cycles >15 pN / 7 pN / <3 pN.

Some results are limits rather than exact numbers.

For the substance magnetic tweezers DNA hairpin, the binding signal (s (residence time)) in data set [1] was 9540; in data set [2], greater than 5500; in data set [3], 60; in data set [4] (ADPNP, sliding -0.109 nm/s, n=58) it was 1630; in data set [4] (no ATP, sliding -0.063 nm/s), 1840; in data set [5], 20. The binding signal (s (residence time)) in data set [6] was 930.
